Reference: patent US20240043551A1 (ADLAI NORTYE BIOPHARMA, published 2024)

B1: TN1-36 scFv on phage (scFv, V domains shown)
VH: QQSVKESEGGLFKPTDTLTLTCTVSGFSLSSSAVSWVRQAPGNGLEWIGAIGSGGTSYYSNWAKSRSTITRDTNLNTVTLKMTSLTAADTATYFCARDPNSSDYPYGAYGMGLWGPGTLVTVSS
VL: ELDLTQTPASVEVAAGGTVTINCQVSQSISSYLSWYQQKPGQPPKLLIYYASTLASGVPSRFSGSGSGTEFTLTISGVQCDDAATYYCQQGYITSNVGNAFGGGTEVVVK
notes: also called TN1-36_VH/TN1-36_VL
B2: TN36-2 (antibody, human IgG1, V domains shown)
VH: EVQLVESGGGLIQPGGSLRLSCAASGFSLSSSAVSWVRQAPGKGLEWIGAIGSGGTSYYSNWAKSRFTISRDNSKNTLYLQMNSLRAEDTAVYYCARDPNSSDYPYGAYGMGLWGRGTLVTVSS
VL: DIQMTQSPSSLSASVGDRVTITCQVSQSISSYLSWYQQKPGKAPKLLIYYASTLASGVPSRFSGSGSGTDFTLTISSLQPEDFATYYCQQGYITSNVGNAFGGGTKVEIK
notes: Humanized; also called AL2/AL8

How the values were obtained:
[1] = biological target: T1, His tagged human TNFR2 ECD (Acro Biosystem, TN2-H5227) (human, UniProt P20333 23-257); experiment: monoclonal phage ELISA, hTNFR2-His coated, anti-M13-HRP
T1 construct: extracellular domain; Bought protein; also called TNFR2-His; hTNFR2-His; not shown: His tag
T1 sequence (looked up): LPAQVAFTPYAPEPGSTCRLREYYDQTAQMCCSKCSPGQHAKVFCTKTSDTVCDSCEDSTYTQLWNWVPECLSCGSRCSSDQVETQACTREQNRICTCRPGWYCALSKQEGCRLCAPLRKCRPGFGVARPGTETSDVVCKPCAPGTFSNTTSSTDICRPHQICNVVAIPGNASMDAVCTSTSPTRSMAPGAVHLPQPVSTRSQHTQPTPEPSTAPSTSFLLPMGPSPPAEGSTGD
Experimental: A 96-well ELISA plate was coated with hTNFR2-His and blocked with PBS buffer containing 2% BSA at […], of pre-blocked phage solution was added to the plate and incubated at 37° C. for 30 min. After the plate was washed twice with PBS buffer containing 0.05% Tween 20, phage binding was detected by HRP-conjugated anti-M13 antibody (GE Healthcare). Top binders were picked and the corresponding phagemids in TG1 cell were isolated and subjected to DNA sequencing to obtain VH/VL sequence. The sequences of TN1-36_VH and TN1-36_VL are set forth as SEQ ID NO: 1 and SEQ ID NO: 2, respectively. Antibody numbering and CDR annotation are performed according to IMGT scheme respectively.

[2] = biological target: T1, His tagged human TNFR2 ECD (Acro …); experiment: ELISA, TNFR2-His coated, antibody 0.006 and 0.06 µg/well
[3] = biological target: T2, Full length human TNFR2 on Jurkat E6-1 cells (Clone NO.3) (human, UniProt P20333 23-461); experiment: FACS on human TNFR2+ Jurkat Clone No.3, biotinylated antibody with streptavidin-PE
T2 construct: whole, on cells; also called human TNFR2+ Jurkat cells; hTNFR2 Jurkat
T2 sequence (looked up): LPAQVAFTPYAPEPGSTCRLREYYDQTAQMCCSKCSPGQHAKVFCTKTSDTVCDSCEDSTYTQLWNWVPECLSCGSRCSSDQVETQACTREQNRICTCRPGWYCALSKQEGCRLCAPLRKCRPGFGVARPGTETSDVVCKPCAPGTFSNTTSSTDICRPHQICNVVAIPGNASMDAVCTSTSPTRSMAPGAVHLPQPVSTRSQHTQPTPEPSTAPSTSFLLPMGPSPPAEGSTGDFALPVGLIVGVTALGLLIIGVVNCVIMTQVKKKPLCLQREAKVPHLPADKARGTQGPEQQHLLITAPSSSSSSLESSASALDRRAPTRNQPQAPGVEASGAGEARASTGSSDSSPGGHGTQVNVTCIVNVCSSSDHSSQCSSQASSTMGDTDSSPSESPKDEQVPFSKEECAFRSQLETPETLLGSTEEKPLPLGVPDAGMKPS
Experimental: FACS analysis was used to evaluate the binding of purified anti-TNFR2 antibody candidates produced from example 6 to cell surface TNFR2 target. Anti-human TNFR2 antibodies and negative control IgG were biotinylated using a EZ-Link™ Micro Sulfo-NHS-Biotinylation Kit (Thermo Fisher Scientific, 21925) according to manufacturer's instructions. Biotinylated antibodies (100 μg/mL) were then incubated with Halt™ Protease Inhibitor Cocktail (100X, Thermo Scientific, 1862209) and 80 μg/mL Streptavidin-R-Phycoerythrin (PE) conjugate (Invitrogen, S21388). Antibodies were stored at 4° C. until use. 5×10⁵ Clone No.3 of human TNFR2⁺ Jurkat cells were distributed each well and blocked with human TruStain FcX™ (Biolegend, 422302) for 10 minutes at room temperature before stained with a serially diluted PE conjugated anti-human TNFR2 antibodies or hIgG1 starting from 50 μg/mL in a 5-fold dilution fashion for 30 minutes at 4° C. PE-anti hTNFR2 (Clone MR2-1, Thermo fisher #TNFR7504) was used as positive control. The geometric mean fluorescent intensity was measured on Sony SA3800 cell analyzer. Data were analyzed using Flowjo Software (Tree star Inc).

[4] = biological target: T3, rat TNFR2 (R&D systems, 8348-R2-050) (rat, UniProt Q80WY6 23-258); experiment: ELISA, receptor coated at 1 µg/ml
T3 construct: Bought protein
T3 sequence (looked up): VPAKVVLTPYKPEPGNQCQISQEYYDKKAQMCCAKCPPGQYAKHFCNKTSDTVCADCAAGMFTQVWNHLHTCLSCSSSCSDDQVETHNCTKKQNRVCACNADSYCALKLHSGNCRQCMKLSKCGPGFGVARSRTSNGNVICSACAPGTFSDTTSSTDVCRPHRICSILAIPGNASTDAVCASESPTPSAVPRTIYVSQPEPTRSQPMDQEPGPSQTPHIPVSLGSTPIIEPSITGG
Experimental: Plates were incubated at 4° C. overnight. Antibodies was titrated from 100 μg/ml in a 5-fold dilution series, and distributed 100 μL, per well and incubated at 37° C. for 1 hour. Human IgG1 isotype control (BioxCell, BE0297) was used as negative control. TNFR2 Polyclonal Antibody (Invitrogen, PAS-80159) and HRP conjugated Goat anti-Rabbit IgG Fc Secondary Antibody (Invitrogen, A16116) were used as positive control for rat TNFR2 detection.

[5] = biological target: T4, mouse TNFR2 (R&D systems, 426-R2-050/CF) (mouse, UniProt P25119 23-258); experiment: ELISA, receptor coated at 1 µg/mL
T4 construct: Bought protein
T4 sequence (looked up): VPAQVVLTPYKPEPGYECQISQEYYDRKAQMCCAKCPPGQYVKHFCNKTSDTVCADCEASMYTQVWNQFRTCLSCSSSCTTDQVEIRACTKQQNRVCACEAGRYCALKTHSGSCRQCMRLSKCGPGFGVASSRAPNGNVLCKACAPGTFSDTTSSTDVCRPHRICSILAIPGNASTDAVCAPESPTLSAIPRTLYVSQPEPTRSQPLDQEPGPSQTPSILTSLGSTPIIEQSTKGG
Experimental: (§1) Human TNFR2 (Acro Biosystem, TN2-H5227), Human TNFR1 (Acro Biosystem, TN1-H5222), Cynomolgus TNFR2 (Sino Biological, 90102-CO8H) or mouse TNFR2 (R&D systems, 426-R2-050/CF) was coated on high binding polystyrene flat bottom micro-titer plates (Thermo Scientific, 3455) in PBS (PH=7.4, Gibco,10010-031) at 1 μg/mL and 100 μL per well. Plates were incubated at 4° C. overnight.
(§2) Plates were warmed up to room temperature the next day and washed with 200 μL PBS containing 0.1% Tween 20 (Life technologies, 003005) per well for 3 times. Plates were blocked with 200 μL PBS buffer containing 1% BSA (Fisher Scientific, BP1600-100) per well for 1 hour at 37° C. Antibodies was titrated from 5 μg/mL in a 5-fold dilution series, distributed 100 μL per well and incubated at 37° C. for 1 hour. Human IgG1 isotype control (BioxCell, BE0297) was used as negative control. Plates were washed with 200 μL PBS containing 0.1% Tween 20 (Life technologies, 003005) per well for 3 times. Goat anti-Human IgG Fc Secondary Antibody-HRP conjugate (Invitrogen, A18817) were distributed at 0.5μg/mL and 100 μL per well to detect bound antibodies. After 1-hour incubation of secondary antibody at 37° C., plates were washed with 200 μL PBS containing 0.1% Tween 20 (Life technologies, 003005) per well for 3 times. Plates were developed using TMB Substrate Solution (eBioscience, 00-4201-56) and stopped with ELISA stop solution (Invitrogen, SSO4). The level of bound antibodies was determined by reading absorbance at 450 nm. Mouse anti-human TNFR1 antibody (ThermoFisher Scientific, MA1-81005) and goat anti mouse IgG secondary antibody-HRP conjugate (Invitrogen, 62-5520) were used as positive control for human TNFR1 detection. Armenian Hamster anti-mouse TNFR2 antibody (InVivoMab, BE0247) and HRP-Goat anti-Armenian Hamster IgG (H+L) Secondary Antibody (Invitrogen, PA1-32045) were used as positive control for mouse TNFR2 detection.

[6] = biological target: T5, Human TNFR1 (Acro Biosystem, TN1-H5222) (human, UniProt P19438 30-211); experiment: ELISA, receptor coated at 1 µg/mL
T5 construct: Bought protein; also called TNF receptor type 1; CD120a
T5 sequence (looked up): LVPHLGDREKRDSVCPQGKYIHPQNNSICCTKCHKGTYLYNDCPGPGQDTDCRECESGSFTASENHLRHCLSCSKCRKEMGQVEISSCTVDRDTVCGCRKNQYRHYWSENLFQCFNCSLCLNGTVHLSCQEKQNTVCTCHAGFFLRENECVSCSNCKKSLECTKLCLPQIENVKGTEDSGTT
Experimental: as §1, §2

Row | Binder | binding result [1] | binding result [2] | binding result [3] | binding result [4] | binding result [5] | binding result [6]
1 | B1 | binds | – | – | – | – | –
2 | B2 | – | binds | binds | no binding (tested: titrated from 100 µg/ml) | no binding (tested: titrated from 5 µg/mL) | no binding (tested: titrated from 5 µg/mL)
